# According to patent publication US20030044914A1 (SALK INSTITUTE FOR BIOLOGICAL STUDIES, published 2003):
# B1: XOR-6 (Xenopus Orphan Receptor 6) (receptor)
# chain: MWKVQETLVLEEEEEEEDASNSCGTGEDEDDGDPKICRACGDRATGYHFNAMTCEGCKGFFRRAVKRNLRLSCPFQNSCVINKSNRRHCQACRLKKCLDIGMRKELIMSDAAVEQRRALIKRKHKLTKLPPTPPGASLTPEQQHFLTQLVGAHTKTFDFNFTFSKNFRPIRRSSDPTQEPQATSSEAFLMLPHISDLVTYMIKGIISFAKMLPYFKSLDIEDQIALLKGSVAEVSVIRFNTVFNSDTNTWECGPFTYDTEDMFLAGFRQLFLEPLVRIHRMMRKLNVQSEEYAMMAALSIFASYRPGVCDWEKIQKLQEHIALTLKDFIDSQRPPSPQNRLLYPKIMECLTELRTVNDIHSKQLLEIWDIQPDATPLMREVFGSPE
# notes: Expressed from pCDG-XOR6 (XOR-6 protein coding region) in CV-1 cells; Full-length, about 386 amino acids; also called full-length XOR-6
# How the values were obtained:
# [1] = biological target: T1, hRXRα (human, UniProt P19793 1-462); experiment: in vitro DNA-binding (gel shift) with in vitro translated proteins
# T1 construct: In vitro transcribed and translated protein used in gel shift assays with XOR-6; also called human RXR alpha
# T1 sequence (looked up): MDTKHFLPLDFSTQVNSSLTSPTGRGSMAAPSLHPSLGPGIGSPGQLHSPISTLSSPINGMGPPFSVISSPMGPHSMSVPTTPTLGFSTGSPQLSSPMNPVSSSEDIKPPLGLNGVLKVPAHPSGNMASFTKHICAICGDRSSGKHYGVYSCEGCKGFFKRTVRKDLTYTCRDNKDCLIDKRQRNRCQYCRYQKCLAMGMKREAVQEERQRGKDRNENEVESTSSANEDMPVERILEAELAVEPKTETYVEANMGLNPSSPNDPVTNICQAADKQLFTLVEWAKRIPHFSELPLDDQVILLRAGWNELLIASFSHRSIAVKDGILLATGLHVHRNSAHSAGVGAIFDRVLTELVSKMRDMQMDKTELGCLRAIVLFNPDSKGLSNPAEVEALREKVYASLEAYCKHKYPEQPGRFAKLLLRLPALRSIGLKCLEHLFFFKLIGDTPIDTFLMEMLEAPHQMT
# Method: DNA-binding analysis was performed using in vitro transcribed, translated proteins (Perlmann et al., 1993, supra. oligonucleotides employed have been described previously (see Umesono et al., in Cell 65:1255-1266 (1990) and Perlmann et al., 1993, supra).
# Thus, in vitro transcribed and translated proteins were mixed with a cocktail of hormone response elements containing DR0, DR1, PPRE, DR2, MLV-TRE, SPP1, and β-RARE. Thus, XOR-6 and hRXRα proteins were mixed and incubated with radiolabelled response elements. DR-1 through 5 are direct repeats of the sequence […] separated by 1-5 nucleotides. Reaction conditions and gel electrophoresis employed were as described by Perlmann et al., 1993, supra.
# [2] = biological target: T2, hRARα (human, UniProt P10276 1-462); experiment: in vitro DNA-binding (gel shift) with in vitro translated proteins and a cocktail of response elements
# T2 construct: also called human RAR alpha
# T2 sequence (looked up): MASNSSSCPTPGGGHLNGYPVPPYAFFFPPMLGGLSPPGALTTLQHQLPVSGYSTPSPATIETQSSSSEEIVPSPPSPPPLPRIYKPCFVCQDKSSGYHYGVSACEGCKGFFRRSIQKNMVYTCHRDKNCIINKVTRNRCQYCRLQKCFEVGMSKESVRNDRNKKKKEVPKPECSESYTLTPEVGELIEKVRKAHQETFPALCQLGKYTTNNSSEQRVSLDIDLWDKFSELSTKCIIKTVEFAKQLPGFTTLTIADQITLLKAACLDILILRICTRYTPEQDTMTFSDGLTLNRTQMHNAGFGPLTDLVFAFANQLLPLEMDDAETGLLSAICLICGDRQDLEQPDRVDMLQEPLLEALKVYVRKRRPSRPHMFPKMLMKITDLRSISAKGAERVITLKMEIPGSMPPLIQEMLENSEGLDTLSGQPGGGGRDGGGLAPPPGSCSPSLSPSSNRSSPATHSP
binder,measurement,setting,value
B1,binding result,[1],binds
same,binding result,[2],no binding
